Laboratory results taken from FireProtDB.

Settings: Escherichia coli (strain K12), Thermal, CD, whole UniProt chain shown; for unfolding free energy: reversible: yes
[1] = pH 2, glycine-HCl 10 mM, reversible: yes (98%)
[2] = pH 2.03, glycine-HCl 10 mM, reversible: yes (109%)
[3] = pH 2.04, glycine-HCl 10 mM, reversible: yes (95%)
[4] = pH 2.15, glycine-HCl 10 mM, reversible: yes (92%)
[5] = pH 2.18, glycine-HCl 10 mM, reversible: yes (90%)
[6] = pH 2.22, glycine-HCl 10 mM, reversible: yes (95%)
[7] = pH 2.39, glycine-HCl 10 mM, reversible: yes (95%)
[8] = pH 2.45, glycine-HCl 10 mM, reversible: yes (96%)
[9] = pH 2.53, glycine-HCl 10 mM, reversible: yes (92%)
[10] = pH 2.65, glycine-HCl 10 mM, reversible: yes (91%)
[11] = pH 2.79, glycine-HCl 10 mM, reversible: yes (92%)
[12] = pH 2.86, glycine-HCl 10 mM, reversible: yes (97%)
[13] = pH 2.95, glycine-HCl 10 mM, reversible: yes (92%)
[14] = pH 3.06, glycine-HCl 10 mM, reversible: yes (90%)
[15] = pH 3.1, glycine-HCl 10 mM, reversible: yes (85%)
[16] = pH 3.11, glycine-HCl 10 mM, reversible: yes (91%)
[17] = pH 3.18, glycine-HCl 10 mM, reversible: yes (93%)
[18] = pH 3.25, glycine-HCl 10 mM, reversible: yes (94%)
[19] = pH 3.26, glycine-HCl 10 mM, reversible: yes (95%)
[20] = pH 3.34, glycine-HCl 10 mM, reversible: yes (94%)
[21] = pH 3.38, glycine-HCl 10 mM, reversible: yes (96%)
[22] = pH 3.64, glycine-HCl 10 mM, reversible: yes (93%)
[23] = pH 3.98, glycine-HCl 10 mM, reversible: yes (93%)
[24] = pH 4, glycine-HCl 10 mM, reversible: yes (94%)

B1: Ribonuclease HI wild type, P0A7Y4 (protein)
chain: MLKQVEIFTDGSCLGNPGPGGYGAILRYRGREKTFSAGYTRTTNNRMELMAAIVALEALKEHCEVILSTDSQYVRQGITQWIHNWKKRGWKTADKKPVKNVDLWQRLDAALGQHQIKWEWVKGHAGHPENERCDELARAAAMNPTLEDTGYQVEV
[1]
  Tm: 26.5 °C
  unfolding enthalpy (van 't Hoff): 61.3 kcal/mol
[2]
  Tm: 28.7 °C
  unfolding enthalpy (van 't Hoff): 67.9 kcal/mol
[3]
  Tm: 28.5 °C
  unfolding enthalpy (van 't Hoff): 70.6 kcal/mol
[4]
  Tm: 29.9 °C
  unfolding enthalpy (van 't Hoff): 67.1 kcal/mol
[5]
  Tm: 32.5 °C
  unfolding enthalpy (van 't Hoff): 63.5 kcal/mol
[6]
  Tm: 33 °C
  unfolding enthalpy (van 't Hoff): 65.8 kcal/mol
[7]
  Tm: 35.5 °C
  unfolding enthalpy (van 't Hoff): 66.7 kcal/mol
[8]
  Tm: 35.4 °C
  unfolding enthalpy (van 't Hoff): 71.8 kcal/mol
[9]
  Tm: 39.8 °C
  unfolding enthalpy (van 't Hoff): 76 kcal/mol
[10]
  Tm: 42.3 °C
  unfolding enthalpy (van 't Hoff): 81.3 kcal/mol
[11]
  Tm: 46.1 °C
  unfolding enthalpy (van 't Hoff): 89 kcal/mol
[12]
  Tm: 46.4 °C
  unfolding enthalpy (van 't Hoff): 80.5 kcal/mol
[13]
  Tm: 50.1 °C
  unfolding enthalpy (van 't Hoff): 91.6 kcal/mol
pH 3, 10 °C, glycine-HCl 10 mM
  unfolding free energy: 8.14 kcal/mol
pH 3, 25 °C, glycine-HCl 10 mM
  unfolding free energy: 6.08 kcal/mol
[14]
  Tm: 50.7 °C
  unfolding enthalpy (van 't Hoff): 102 kcal/mol
[15]
  Tm: 53.9 °C
  unfolding enthalpy (van 't Hoff): 106 kcal/mol
[16]
  Tm: 52.2 °C
  unfolding enthalpy (van 't Hoff): 101 kcal/mol
[17]
  Tm: 54 °C
  unfolding enthalpy (van 't Hoff): 102 kcal/mol
[18]
  Tm: 55.1 °C
  unfolding enthalpy (van 't Hoff): 109 kcal/mol
[19]
  Tm: 58.9 °C
  unfolding enthalpy (van 't Hoff): 96.6 kcal/mol
[20]
  Tm: 57.6 °C
  unfolding enthalpy (van 't Hoff): 100 kcal/mol
[21]
  Tm: 57.4 °C
  unfolding enthalpy (van 't Hoff): 101 kcal/mol
[22]
  Tm: 62.1 °C
  unfolding enthalpy (van 't Hoff): 106 kcal/mol
[23]
  Tm: 66 °C
  unfolding enthalpy (van 't Hoff): 125 kcal/mol
pH 4, 10 °C, glycine/HCl 10 mM
  unfolding free energy: 12 kcal/mol
pH 4, 25 °C, glycine-HCl 10 mM
  unfolding free energy: 10 kcal/mol
[24]
  Tm: 66.6 °C
  unfolding enthalpy (van 't Hoff): 112 kcal/mol
